From patent publication US20180273595A1 (REGENTS OF THE UNIVERSITY OF MICHIGAN, published 2018)
*1 amine or outer side, *2 acyl side, *3 side chain or, on linkers, in order; H or OH if unused. Primed or numbered codes have the meaning given here. Where no end group is shown, it is not given here. [ ]: non-standard residue; d: D form. Y(Me) = COc1ccc(C[C@H](N[*:1])C(=O)[*:2])cc1; Pip′ = 4-methylpiperazine; βAla = NCCC(=O)O

T1: recombinant His-tagged full-length ERG (UniProt P11308 1-479, biotinylated with NHS-PEG4 biotin for the OctetRED assays)
T1 construct: mature; Baculovirus expression in SF9 cells, Ni-NTA purified; also called wild-type ERG; wtERG; not shown: His tag
T1 sequence (looked up): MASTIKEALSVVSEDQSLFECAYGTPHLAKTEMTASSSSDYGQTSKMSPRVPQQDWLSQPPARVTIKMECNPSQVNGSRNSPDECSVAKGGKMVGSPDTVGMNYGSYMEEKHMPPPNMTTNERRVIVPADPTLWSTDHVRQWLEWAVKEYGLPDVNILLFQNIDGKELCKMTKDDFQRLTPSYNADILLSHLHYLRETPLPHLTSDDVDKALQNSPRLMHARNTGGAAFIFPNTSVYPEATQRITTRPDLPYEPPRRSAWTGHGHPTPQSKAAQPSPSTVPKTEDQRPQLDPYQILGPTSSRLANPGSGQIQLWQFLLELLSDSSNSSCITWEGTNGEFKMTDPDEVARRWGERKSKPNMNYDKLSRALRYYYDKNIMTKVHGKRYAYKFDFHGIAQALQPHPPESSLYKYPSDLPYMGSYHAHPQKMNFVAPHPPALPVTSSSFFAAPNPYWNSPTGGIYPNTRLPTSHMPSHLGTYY

T2: TMPRSS2:ERG gene fusion product, endogenous in VCaP cells (UniProt P11308 33-479, limits assumed)
T2 construct: In cell lysates, in cells or in xenograft tumors; also called endogenous ERG; VCaP ERG
T2 sequence (looked up): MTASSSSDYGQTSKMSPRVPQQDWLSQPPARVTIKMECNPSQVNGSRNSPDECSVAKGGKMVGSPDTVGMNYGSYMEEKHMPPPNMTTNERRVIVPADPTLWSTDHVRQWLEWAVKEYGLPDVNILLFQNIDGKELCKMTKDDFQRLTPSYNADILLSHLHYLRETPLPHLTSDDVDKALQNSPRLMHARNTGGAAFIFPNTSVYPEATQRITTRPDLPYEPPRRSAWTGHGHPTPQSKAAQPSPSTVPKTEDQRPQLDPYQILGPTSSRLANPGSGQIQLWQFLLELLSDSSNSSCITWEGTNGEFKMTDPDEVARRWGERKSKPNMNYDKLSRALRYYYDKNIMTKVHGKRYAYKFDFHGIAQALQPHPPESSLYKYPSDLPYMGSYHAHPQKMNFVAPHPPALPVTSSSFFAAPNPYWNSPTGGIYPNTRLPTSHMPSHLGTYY

T3: Halo-tagged full-length ERG (UniProt P11308 1-479)
T3 construct: mature; In vitro transcription/translation in wheat germ lysate; also called Halo-ERG fusion protein; not shown: HaloTag (about 35 kDa), N-terminal
T3 sequence (looked up): T1 sequence (looked up)

B1: biotinylated muEIP2 peptide (peptide)
peptide: LSAGSAP
modifications: also: biotin, position not given here
notes: also called biotin-muEIP2; mutant EIP2 (muEIP2)
B2: 7-mer LPPYLFT capped at the N-terminus only (Ac-LPPYLFT) (peptide)
peptide: Ac-LPPYLFT-OH
notes: Variant inferred from the sentence on capping
B3: LPPYLFT with 4-methylpiperazine (Pip) added (peptide)
peptide: LPPYLFT
modifications: not fully specified (N-terminus)
notes: also called more soluble version of EIP1
B4: PPYL with 4-methylpiperazine (Pip) added (peptide)
peptide: [Pip′]PPYL
modifications: not fully specified
notes: also called more soluble version of 4PL-A

What follows are binders tested against T1, recombinant His-tagged full-length ERG (assay: OctetRED; Kd table of synthetic peptides on ERG).
Description: (§1) The interaction coefficients between ERG and synthetic peptides or peptidomimetics were determined by biolayer interferometry technology using the Octet Red system (ForteBio). Purified ERG and GUS proteins were biotinylated by EZLink NHS-PEG4 Biotinylation Kit (Thermo Scientific) following the manufacturer's protocol and any unincorporated biotin was removed from the reactions with Zeba 2 ml desalt columns (Thermo). Biotinylated proteins (500 μg/ml) were then incubated with super streptavidin biosensors in binding buffer (20 mM HEPES pH 7.4, 150 mM NaCl), blocked with 10 μg/ml biocytin and washed three times in binding buffer. Peptides were serially diluted in binding buffer, mixed with the protein-coupled biosensors and peptidomimetic:protein association/dissociation was monitored for 10 min at 25° C. Nonspecific binding from the signal obtained from peptidomimetic:GUS interactions was subtracted from that of peptidomimetic:ERG interactions and baseline signal drift was controlled by monitoring immobilized ERG without peptide. Octet Red analysis software was used to analyze the data.

| Binder | Kd [µM] |
| --- | --- |
| H-LPPYLF-NH2 (also called H2N-LPPYLF-NH2) [6LF-N] | 4.88 |
| H-LPPYL-NH2 (also called H2N-LPPYL-NH2) [5LL-N] | 9.6 |
| H-PPYLF-NH2 (also called H2N-PPYLF-NH2) [5PF-N] | 10.2 |
| Ac-PPYLF-NH2 (also called Ac-PPYLF-NH2) [5PF-A] | 9.44 |
| H-PPYL-NH2 (also called H2N-PPYL-NH2) [4PL-N] | > 100 |
| Ac-PYLFT-NH2 (also called Ac-PYLFT-NH2) [5PT-A] | 5.15 |
| Ac-PPYLFT-NH2 (also called Ac-PPYLFT-NH2) [6PT-A] | 3.64 |
| Ac-LPPYL-NH2 (also called Ac-LPPYL-NH2) [5LL-A] | 12.4 |
| Ac-LPPYLF-NH2 (also called Ac-LPPYLF-NH2) [6LF-A] | > 100 |
| H-PPYLFT-NH2 (also called H2N-PPYLFT-NH2) [6PT-N] | 11.5 |
| H-PYLFT-NH2 [5PT-N (NH2-PYLFT-NH2)] | 1.31 |

The binders below were run against T1, recombinant His-tagged full-length ERG (assay: OctetRED BLI).

| Binder | Kd [µM] |
| --- | --- |
| LPPYLFTGGRKKRRQRRRG (not fully specified, also called FITC-labeled TAT-EIP1) [TAT-EIP1 cell-permeable peptide] | 0.68 |
| LSFGSLPGGRKKRRQRRRG [TAT-EIP2 cell-permeable peptide] | 1.11 |

These binders were tested against T1, recombinant His-tagged full-length ERG (assay: Kd table of synthetic peptides on ERG; assay not given).

| Binder | Kd [µM] | binding result |
| --- | --- | --- |
| [Pip′]PP[Y(Me)]L-NH2 (also called Pip-PPY(Me)L-NH2) [4PL-3Y(Me)] | 15.5 |  |
| [Pip′]PPFL-NH2 (also called Pip-PPFL-NH2) [4PL-3F] | 3.9 |  |
| [Pip′]PPYD-NH2 (also called Pip-PPYD-NH2) [4PL-4D] | 14.8 |  |
| [Pip′]PPYA-NH2 (also called Pip-PPYA-NH2) [4PL-4A] | 7.9 |  |
| [Pip′]PPYF-NH2 (also called Pip-PPYF-NH2) [4PL-4F] |  | no binding |

What follows are binders tested against T1, recombinant His-tagged full-length ERG (assay: OctetRED biolayer interferometry, biotinylated ERG on streptavidin sensors, peptide in solution).
Description: as §1

| Binder | binding result |
| --- | --- |
| LPPALFT (Alanine substitution control) [muEIP1 synthetic peptide LPPALFT] | no binding (tested: 20 µM) |
| LSAGSAP (Alanine substitution control) [muEIP2 synthetic peptide LSAGSAP] | no binding (tested: 20 µM) |

These binders were tested against T1, recombinant His-tagged full-length ERG (assay: OctetRED BLI, alanine substitution peptides of TAT-EIP1).

| Binder | fold increase in Kd against parental TAT-EIP1 [fold] |
| --- | --- |
| LPPALFTGGRKKRRQRRRG (also called Y→A) [TAT-EIP1 with Y to A substitution] | > 100 |
| LAPYLFTGGRKKRRQRRRG (also called P^2→A) [TAT-EIP1 with P2 to A substitution] | > 100 |

These binders were tested against T1, recombinant His-tagged full-length ERG (assay: OctetRED biolayer interferometry, steady-state analysis).
Description: as §1

| Binder | binding result |
| --- | --- |
| LPPTFLY [scrambled peptide LPPTFLY] | no binding (tested: 20 µM) |

What follows are binders tested against T2, TMPRSS2:ERG gene fusion product, … (assay: pull-down of VCaP lysate with biotinylated peptide, ERG immunoblot).
Description: Approximately 1 mg of soluble VCaP cell lysate prepared in RIPA buffer (Invitrogen) was incubated with varying amounts of biotinylated peptides for 2 hours at 4° C. HaloLink agarose beads (20 μl) were added to the peptide-lysate mixture and incubated for an additional 4 hours. Beads were then pelleted by centrifugation, washed three times in PBS-T and loaded into an SDSPAGE gel followed by Western blot analysis. Total VCaP cell lysate was loaded for positive control.

| Binder | binding result |
| --- | --- |
| B1 | no binding (tested: 20 µM) |

Biological target: T1, recombinant His-tagged full-length ERG
Assay: Kd table of synthetic peptides on ERG; assay not given
Remark: another data set of the same source

| Binder | Kd [µM] |
| --- | --- |
| LPPYLFT [EIP1 synthetic peptide LPPYLFT] | 0.972 |
| Ac-LPPDLFT-NH2 (also called Ac-LPPDLFT-NH2) [7LT-4D] | > 100 |
| Ac-LPPWLFT-NH2 (also called Ac-LPPWLFT-NH2) [7LT-4W] | > 100 |
| Ac-LPPFLFT-NH2 (also called Ac-LPPFLFT-NH2) [7LT-4F] | > 100 |
| Ac-LPPHLFT-NH2 (also called Ac-LPPHLFT-NH2) [7LT-4H] | > 100 |

Biological target: T1, recombinant His-tagged full-length ERG
Assay: as above
Remark: another data set of the same source
Description: as §1

| Binder | Kd [µM] |
| --- | --- |
| Ac-PPYL-NH2 (also called capped 4-mer peptide PPYL) [4PL-A (Ac-PPYL-NH2)] | 1.4 |
| H-PPYL-NH2 (also called H2N-PPYL-NH2) [4PL-N] | 94.2 |
| LPPYLFT [EIP1 synthetic peptide LPPYLFT] | 2.8 |
| B2 | 2.8 |

Each binder was assayed against T1, recombinant His-tagged full-length ERG (assay: OctetRED BLI, biotinylated ERG on streptavidin sensors).
Description: as §1

| Binder | Kd [µM] |
| --- | --- |
| FSASSPA [synthetic peptide FSASSPA] | 21.1 |
| MTFGTLP [synthetic peptide MTFGTLP] | 4.6 |
| YTFGTLP [synthetic peptide YTFGTLP] | 3.2 |
| LSFGSLP [EIP2 synthetic peptide LSFGSLP] | 1.8 |
| LTFGSLP [synthetic peptide LTFGSLP] | 2.9 |
| LSFGTFP [synthetic peptide LSFGTFP] | 9.2 |
| FSFGSLP [synthetic peptide FSFGSLP] | 2.1 |
| LAFGSLP [synthetic peptide LAFGSLP] | 6.4 |
| FTFGSLP [synthetic peptide FTFGSLP] | 3.9 |
| LSFGSFP [synthetic peptide LSFGSFP] | 12.5 |
| LRFGTLP [synthetic peptide LRFGTLP] | 7.9 |
| LPPYLFT [EIP1 synthetic peptide LPPYLFT] | 0.6 |

These binders were tested against T3, Halo-tagged full-length ERG (assay: competitive pull-down: Halo-ERG with purified DNA-PKcs or GST-AR and peptide, HaloLink beads, immunoblot).
Description: Halo-ERG fusion protein was expressed using in vitro transcription/translation system as described above. […] Protein mixtures were incubated with or without the peptides in PBS-T (0.1% Tween) at 4° C. overnight. […] The next day 10 μl of HaloLink beads were mixed with the protein-peptide mixture, incubated at RT for 1 hour, washed with 4× in PBS-T and eluted into SDS sample buffer. […] HaloLink beads without incubation with fusion proteins were used as negative controls.

| Binder | binding result |
| --- | --- |
| LPPALFT (Alanine substitution control) [muEIP1 synthetic peptide LPPALFT] | no binding (tested: 50 µM) |

Biological target: T1, recombinant His-tagged full-length ERG
Assay: Kd table of synthetic peptides on ERG; assay not given
Remark: another data set of the same source

| Binder | Kd [µM] | binding result |
| --- | --- | --- |
| [Pip′][βAla][βAla]PPYL-NH2 (not fully specified, also called Pip-βAβA-PPYL-NH2) [4PL-Pip2] | 3 |  |
| PPYE (not fully specified) [PPYE peptide (mutation of PPYL to PPYE)] |  | no binding |
| B3 | 1.7 |  |
| B4 | 3.3 |  |
